{"source": "patent US20140212888A1", "binders": {"B1": {"name": "37F8-derived TCR, WT1 TCR A12-3/B5-1 (TCR α-chain TRAV12-3/TRAJ52/TRAC, TCR β-chain TRBV5-1/TRBD2/TRBJ2-5/TRBC2) (TCR)", "TCR alpha": "WVWSQQKEVEQDPGPLSVPEGAIVSLNCTYSNSAFQYFMWYRQYSRKGPELLMYTYSSGNKEDGRFTAQVDKSSKYISLFIRDSQPSDSATYLCATSNAGGTSYGKLTFGQGTILTVHPNIQNPDPAVYQLRDSKSSDKSVCLFTDFDSQTNVSQSKDSDVYITDKTVLDMRSMDFKSNSAVAWSNKSDFACANAFNNSIIPEDTFFPSPESSCDVKLVEKSFETDTNLNFQNLSVIGFR", "TCR beta": "GPVKAGVTQTPRYLIKTRGQQVTLSCSPISGHRSVSWYQQTPGQGLQFLFEYFSETQRNKGNFPGRFSGRQFSNSRSEMNVSTLELGDSALYLCASSYGERERKGETQYFGPGTRLLVLEDLKNVFPPEVAVFEPSEAEISHTQKATLVCLATGFYPDHVELSWWVNGKEVHSGVSTDPQPLKEQPALNDSRYCLSSRLRVSATFWQNPRNHFRCQVQFYGLSENDEWTQDRAKPVTQIVSAEAWGRADCGFTSESYQQGVLSATILYE"}}, "biological_target": "WT1 (mutant) peptide presented by HLA-A*24:02 on HLA-A*24:02 positive LCL (human)", "experiment": "cell-based or functional assay", "data": [{"binder": "B1", "values": [{"measurement": "cytotoxic activity (%)", "result": 73, "unit": "%"}]}]}
